In publication PMC4686829 (Nature Communications, 2015):

B1: 65C6 Fab (Fab, V domains shown)
VH: EVQLVQSGAEVKKPGESLRISCKGFAYSSTYFWISWVRQMPGKGLEWMGRIDPTDSYINYSPSFQGHVTISVDRSISTVYLQWSSLKASDTAMYYCAYHRRGHFYGSGSAWDWFESWGQGTLVTVSS
VL: EIVLTQSPLTLSVSPGERATLSCRASQSVSSNLAWYQQMPGQAPRLLIYGASTRATGIPARLSGSASGTEFTLTISSLQSEDFAVYYCQQYNNWPYTFGQGTKLEIK
B2: 65C6, full-length human IgG1 (antibody, V domains shown)
VH: B1 VH
VL: B1 VL
notes: IgG1; source: 293 T cells, transient transfection, purified (Protein A agarose)
B3: 100F4, full-length human IgG1 (antibody, V domains shown)
VH: QLQLQESGLGLVKPSETLSLTCTVSGDSVSSGSYYWSWLRQPPGKGLEWIGNMHGSGHTNYNPSLKSRVTITPDTSKNHFSLRLSSVTAADTAVYYCARALLTTVTTFEYWGQGTLVTVSS
VL: QSALTQPPSVSGAPGQRVTIPCTGGSSNIGAGYSVHWYQQLPGTAPKLLIYGSNSRPSGVPDRFSGSKSGTSASLAITGLRPEDEADYYCQSYDSSLSGSQVFGAGTRVTVL
notes: as for B2
B4: AVFluIgG03 Fab (Fab, V domains shown)
VH: EVQLLESGGGLVQPGGSLRVSCTNSGFTFSNYAMSWVRQAPGKGLEWVSAISGNGGSGTYYADSVKGRFTISRDNSKNTMYLQMNSLRAEDTAVYYCVRDDSYDGGGHYGLHNWFDSWGQGTLVTVSS
VL: SVLTQPPSVSGAPGQRVTISCTGSSSNIGAGYDVHWYQQLPGTAPKLLIYGNSNRPSGVPDRFSGSKSGTSASLAITGLQAEDEADYYCQSYDSSVVVFGGGTKLEIK
notes: also called Fab of AVFluIgG03; AVFulgG03
B5: AVFluIgG03, full-length human IgG1 (antibody, V domains shown)
VH: B4 VH
VL: B4 VL
notes: IgG1; also called AVFulgG03; AVFluIg03; source: 293 T cells, transient transfection, purified (Protein A agarose)

How the values were obtained:
[1] = target: globular head of H5 HA, HA1 fragment between residue D55 and E271 (F55–271) of A/Anhui/1/2005 (Influenza A virus A/Anhui/1/2005 (H5N1)); assay: crystal structure; settings: both partners purified
[2] = target: HA fragment between residues I60 and G263 (F60–263) of A/Anhui/1/05, displayed on yeast (Influenza A virus A/Anhui/1/2005 (H5N1), strain); assay: flow cytometry on cells; settings: one partner purified

Binder	binding result [1]	binding result [2]
B1	binds	
B2		binds
B3		binds
B4	binds	
B5		binds
